Among the targets are C11; E2; E4.
Assay in all cases: SPR
In general terms: In SPR one partner is held on a chip, and binding of the other changes the refractive index at the surface.

B1: rituximab, galactosylated afucosylated (G2) glycoform (antibody)
chain 1: QVQLQQPGAELVKPGASVKMSCKASGYTFTSYNMHWVKQTPGRGLEWIGAIYPGNGDTSYNQKFKGKATLTADKSSSTAYMQLSSLTSEDSAVYYCARSTYYGGDWYFNVWGAGTTVTVSA
chain 2: QIVLSQSPAILSASPGEKVTMTCRASSSVSYIHWFQQKPGSSPKPWIYATSNLASGVPVRFSGSGSGTSYSLTISRVEAEDAATYYCQQWTSNPPTFGGGTKLEIK
modifications: N-linked glycan on Asn297: G2 (galactosylated, no core fucose)
A word on the Kd: it is the concentration at which binding is half-saturated. Read a low Kd as a tighter complex. For B1, the Kd in the test with C11 turned out to be 22.8 µM; with E2, 4.74 µM; with E4 it was 2480 nM.

The values are drawn from PMC9860306 (2022).
